# According to patent US20130071418:
# What was measured:
# PCP-consensus VPg = system: T1, PCP-consensus VPg
# T1 sequence: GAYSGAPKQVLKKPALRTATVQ
substance,measurement,setting,value
Coxsackie virus A25 polymerase (CVA Pol3D),uridylylation of VPg by Pol3D,PCP-consensus VPg,both the PV-Pol3D and that of CVA uridylylated the PCP-consensus VPg as well or better than the one encoded in their respective genomes
same,uridylylation of VPg by Pol3D,CVA24 VPg,uridylylated the PCP-consensus VPg as well or better than the one encoded in their respective genomes
